{"source": "patent US20240409663A1", "about": "(CONCEPT TO MEDICINE BIOTECH, published 2024)", "key": {"human GPC3 on cells [1]": {"biological_target": "T1, human GPC3 on cells (human, UniProt P51654 25-554)", "assay": "FACS, HEPG2 cells"}, "human GPC3 on cells [2]": {"biological_target": "T1, human GPC3 on cells", "assay": "FACS, HEPG2 cells", "remark": "listed apart in the source"}, "human GPC3 on cells [3]": {"biological_target": "T1, human GPC3 on cells", "assay": "FACS, Huh-7 cells"}, "human GPC3 on cells [4]": {"biological_target": "T1, human GPC3 on cells", "assay": "FACS, GPC3-CHOK1 cells"}, "human GPC3 on cells [5]": {"biological_target": "T1, human GPC3 on cells", "assay": "FACS, GPC3-CHOK1 cells", "remark": "listed apart in the source"}, "human GPC3 on cells [6]": {"biological_target": "T1, human GPC3 on cells", "assay": "cell-based or functional assay"}, "human GPC3 on cells [7]": {"biological_target": "T1, human GPC3 on cells", "assay": "FACS, HEPG2 cells", "excerpt": "(§1) FACS was used to evaluate the binding activity of Hu 52H5D3B8-7 and Hu 52H5D3B8-8 with comparison to benchmark antibodies GC33 and Y035 on human GPC3 expressed on CHOK1 cells, Huh-7 cell and HEPG2 cells. In order to evaluate the properties of CDRs and frameworks of Hu 52H5D3B8-7 Ab, two chimeric antibodies were generated. The antibody termed “Hu 52H5D3B8-7/8 CDRs with Y035 FRs” contains the Hu 52H5D3B8-7 CDRs and the Y035 FRs. The antibody termed “Y035 CDRs with Hu 52H5D3B8-7 FRs” represents the chimeric antibody with the Y035 CDRs engrafted to Hu 52H5D3B8-7 FRs."}, "human GPC3 on cells [8]": {"biological_target": "T1, human GPC3 on cells", "assay": "FACS, Huh-7 cells", "excerpt": "as §1"}, "human GPC3 on cells [9]": {"biological_target": "T1, human GPC3 on cells", "assay": "FACS, GPC3-CHOK1 cells", "excerpt": "as §1"}, "human GPC3 on cells [10]": {"biological_target": "T1, human GPC3 on cells", "assay": "cell-based or functional assay", "remark": "listed apart in the source"}, "human GPC3 on cells [11]": {"biological_target": "T1, human GPC3 on cells", "assay": "FACS, GPC3-CHOK1 cells", "method": "To evaluate the antigen binding property, the affinity maturated antibodies were analyzed for their binding to human GPC3 over-expressed CHOK1 cells by FACS as previously described.", "remark": "listed apart in the source"}, "human GPC3 on cells [12]": {"biological_target": "T1, human GPC3 on cells", "assay": "cell-based or functional assay", "remark": "listed apart in the source"}, "human GPC3 on cells [13]": {"biological_target": "T1, human GPC3 on cells", "assay": "cell-based or functional assay", "remark": "listed apart in the source"}, "human GPC3 on cells [14]": {"biological_target": "T1, human GPC3 on cells", "assay": "FACS, Huh-7 cells", "method": "(§2) To evaluate the antigen binding property, the humanized antibodies were analyzed for their binding to human GPC3 over-expressed CHOK1 cells and Huh-7 cells by FACS. Briefly, GPC3-CHOK1 cells and Huh-7 cells were firstly incubated with Fc blocking reagent at 4° C. for 15 mins. Cells were washed by FACS buffer and divided to each well with 4-fold serially diluted humanized antibodies starting at 10 μg/mL at 4° C. for 60 mins. Cells were washed by FACS buffer and fixed with 2% PFA at RT for 15 mins. […] As different plates might affect the EC50 of 52H5D3B8-VH+VL, the 12 humanized antibodies were separated into two plates.", "remark": "listed apart in the source"}, "human GPC3 on cells [15]": {"biological_target": "T1, human GPC3 on cells", "assay": "FACS, GPC3-CHOK1 cells", "method": "as §2", "remark": "listed apart in the source"}, "[16]": {"biological_target": "T2, human GPC3-his tag protein (human, UniProt P51654 25-559, limits assumed)", "T2 construct": "recombinant soluble antigen used as analyte in all Biacore runs; also called recombinant GPC3 protein; rhGPC3-His; not shown: His tag", "assay": "SPR Biacore 8K, mAb captured, affinity ranking", "method": "To evaluate antigen binding activity, the chimeric antibody's affinity was measured by Biacore 8K. Two concentrations with most close affinity to the chimeric antibody's affinity were chosen for the 12 humanized antibodies' affinity detection. Human GPC3-his tag protein was injected over captured antibody for 3 mins at a flow rate of 30 μl/min. The antigen was allowed to dissociate for 720 s."}}, "note": "Where two headings read alike, the source gives them in different places.", "data": [{"binder": "Y035 (Carsgen Therapeutics, US20190046659) (antibody, from another filing, V domains shown) VH: EVQLVQSGAEVKKPGASVKVSCKASGYTFSDYEMHWVRQAPGQGLEWMGAIHPGSGDTAYNQRFKGRVTITADKSTSTAYMELSSLRSEDTAVYYCARFYSYAYWGQGTLVTVSA VL: DIVMTQTPLSLPVTPGEPASISCRSSQSLVHSNGNTYLQWYLQKPGQSPQLLIYKVSNRFSGVPDRFSGSGSGTDFTLKISRVEAEDVGVYYCSQSIYVPYTFGQGTKLEIKR", "values": [{"measurement": "EC50", "setting": "human GPC3 on cells [1]", "result": 1250, "unit": "pM"}, {"measurement": "EC50", "setting": "human GPC3 on cells [2]", "result": 1590, "unit": "pM"}, {"measurement": "EC50", "setting": "human GPC3 on cells [3]", "result": 1180, "unit": "pM"}, {"measurement": "EC50", "setting": "human GPC3 on cells [4]", "result": 1460, "unit": "pM"}, {"measurement": "EC50", "setting": "human GPC3 on cells [5]", "result": 1420, "unit": "pM"}, {"measurement": "internalization activity to HEPG2 cells, EC50 (pHAb dye fluorescence)", "setting": "human GPC3 on cells [6]", "result": 1.08, "unit": "µg/mL"}, {"measurement": "internalization activity to HEPG2 cells, Top (pHAb dye fluorescence)", "setting": "human GPC3 on cells [6]", "result": 52000}]}, {"binder": "Hu 52H5D3B8-7/8 CDRs with Y035 FRs (antibody, V domains shown) VH: EVQLVQSGAEVKKPGASVKVSCKASGYTHSDYEMHWVRQAPGQGLEWMGAIHPGSGGTAYNQKFKGRVTITADKSTSTAYMELSSLRSEDTAVYYCARFYSYAYWGQGTLVTVSA VL: DIVMTQTPLSLPVTPGEPASISCRSSQSLVHSNGNTYLQWYLQKPGQSPQLLIYKVSNRFSGVPDRFSGSGSGTDFTLKISRVEAEDVGVYYCSQSIHVPYTFGQGTKLEIKR", "values": [{"measurement": "EC50", "setting": "human GPC3 on cells [7]", "result": 1160, "unit": "pM"}, {"measurement": "EC50", "setting": "human GPC3 on cells [8]", "result": 782, "unit": "pM"}, {"measurement": "EC50", "setting": "human GPC3 on cells [9]", "result": 798, "unit": "pM"}, {"measurement": "internalization activity to HEPG2 cells, EC50 (pHAb dye fluorescence)", "setting": "human GPC3 on cells [10]", "result": 1.14, "unit": "µg/mL"}]}, {"binder": "Y035 CDRs with Hu 52H5D3B8-7 FRs (antibody, V domains shown) VH: EVQLVQSGAEVKKPGASVKVSCKASGYTFTDYEMHWVRQAPGQGLEWMGAIHPGSGDTAYNQRFKGRVTMTADKSISTAYMELSRLRSDDTAVYYCTRFYSYAYWGQGTLVTVSS VL: DVVMTQTPLSLSVTPGQPASISCRSSQSLVHSNGNTYLQWYLQKPGQSPQLLIYKVSNRFSGVPDRFSGSGSGTDFTLKISRVEAEDVGVYYCSQSIYVPYTFGGGTKVEIK", "values": [{"measurement": "EC50", "setting": "human GPC3 on cells [7]", "result": 1050, "unit": "pM"}, {"measurement": "EC50", "setting": "human GPC3 on cells [8]", "result": 667, "unit": "pM"}, {"measurement": "EC50", "setting": "human GPC3 on cells [9]", "result": 985, "unit": "pM"}, {"measurement": "internalization activity to HEPG2 cells, EC50 (pHAb dye fluorescence)", "setting": "human GPC3 on cells [10]", "result": 1.11, "unit": "µg/mL"}]}, {"binder": "52H5D3B8-18#-VH2+VL3 (antibody, V domains shown) VH: QVQLVQSGAEVKKPGASVKVSCKASGYTFTRYEMHWVRQAPGQGLEWIGAIHPGSGGTAYNSKFKGRVTMTADTSTSTVYMELSSLRSEDTAVYYCTRYYSYAYWGQGTLVTVSS VL: DIVMTQTPLSLSVTPGQPASISCRSSQSLVHSNGNTYLQWYLQKPGQSPKLLIYKVSNRYSGVPDRFSGSGSGTDFTLKISRVEAEDVGVYYCVESIHVPYTFGGGTKLEIK", "values": [{"measurement": "EC50", "setting": "human GPC3 on cells [11]", "result": 177, "unit": "pM"}, {"measurement": "EC50 of ADCC signaling (Jurkat-hCD16a-NFAT luciferase reporter), HEPG2 cells", "setting": "human GPC3 on cells [12]", "result": 202, "unit": "pM"}, {"measurement": "EC50 of ADCC signaling (Jurkat-hCD16a-NFAT luciferase reporter), Huh-7 cells", "setting": "human GPC3 on cells [12]", "result": 480, "unit": "pM"}, {"measurement": "EC50 of ADCC cytotoxicity (primary NK cells, LDH), HEPG2 cells", "setting": "human GPC3 on cells [13]", "result": 149, "unit": "pM"}, {"measurement": "EC50 of ADCC cytotoxicity (primary NK cells, LDH), Huh-7 cells", "setting": "human GPC3 on cells [13]", "result": 82.6, "unit": "pM"}]}, {"binder": "Hu 52H5D3B8-11 (antibody, V domains shown, humanized 52H5D3B8; also called 52H5D3B8 VH5 + VL0) VH: EVQLVQSGAEVKKPGASVKVSCKASGYTFTDYEMHWVRQAPGQGLEWIGAIHPGSGGTAYNQKFKGKATLTADKSISTAYMELSRLRSDDTAVYYCTRFYSYAYWGQGTLVTVSS VL: DVVMTQTPLSLSVTPGQPASISCRSSQSLVHSNGNTYLQWYLQKPGQSPQLLIYKVSNRFSGVPDRFSGSGSGTDFTLKISRVEAEDVGVYYCSQSIHVPYTFGGGTKVEIK", "values": [{"measurement": "EC50", "setting": "human GPC3 on cells [14]", "result": 0.0288, "unit": "µg/mL"}, {"measurement": "EC50", "setting": "human GPC3 on cells [15]", "result": 0.04, "unit": "µg/mL"}, {"measurement": "Kd", "setting": "[16]", "result": 3060, "unit": "pM"}, {"measurement": "koff", "setting": "[16]", "result": 0.000905, "unit": "s⁻¹"}, {"measurement": "kon", "setting": "[16]", "result": 295000, "unit": "M⁻¹ s⁻¹"}]}]}
